Among the data in US7329410 are Binding Affinity to Mouse MHC Class I and Binding Affinity to Mouse MHC Class I (percent increase of D^b or K^b on RMA-S cells) values, retold here.

The target in one experiment is Mouse MHC Class I (mouse B6 class I antigens; D^b or K^b molecules on the surface of RMA-S cells) (mouse). Kind of experiment: binding of 9mer peptide to mouse B6 (H-2^b) class I antigens; RMA-S cell assay as for Table XLVII.
In turn, NAPYLPSCL [WT1 peptide P130-138 …] had a Binding Affinity to Mouse MHC Class I of 79%.

As for FPNAPYLPS [WT1 peptide P128-136 …], the Binding Affinity to Mouse MHC Class I turned out to be 1%.

The molecule PNAPYLPSC [WT1 peptide P129-137 …] returned a Binding Affinity to Mouse MHC Class I of 1%.

For the molecule QASSGQARM [WT1 peptide P119-127 …], the Binding Affinity to Mouse MHC Class I came to 2%.

The molecule ASSGQARMF [WT1 peptide P120-128 …] gave a Binding Affinity to Mouse MHC Class I of 1%.

The molecule SQASSGQAR [WT1 peptide P118-126 …] came in with a Binding Affinity to Mouse MHC Class I of 2%.

On to PSQASSGQA [WT1 peptide P117-125 …], for which the Binding Affinity to Mouse MHC Class I amounted to 2%.

The molecule APYLPSCLE [WT1 peptide P131-139 …] gave a Binding Affinity to Mouse MHC Class I of 1%.

SSGQARMFP [WT1 peptide P121-129 …] showed a Binding Affinity to Mouse MHC Class I of 1%.

For QARMFPNAP [WT1 peptide P124-132 …], the Binding Affinity to Mouse MHC Class I was 1%.

As for ARMFPNAPY [WT1 peptide P125-133 …], the Binding Affinity to Mouse MHC Class I was found to be 1%.

Turning to MFPNAPYLP [WT1 peptide P127-135 …], the Binding Affinity to Mouse MHC Class I was 2%.

A further experiment has the same target. Description: RMA-S cells incubated with peptide 25 ug/ml, stained with FITC anti-D^b or anti-K^b, flow cytometry; increase in MFI over medium alone.
On to NLYQMTSQL [WT1 peptide p225-233 …], for which the Binding Affinity to Mouse MHC Class I (percent increase of D^b or K^b on RMA-S cells) amounted to 5.8%.

On to YSSDNLYQM [WT1 peptide p221-229 …], for which the Binding Affinity to Mouse MHC Class I (percent increase of D^b or K^b on RMA-S cells) came to 0.8%.

With NQMNLGATL [WT1 peptide p239-247 …], the Binding Affinity to Mouse MHC Class I (percent increase of D^b or K^b on RMA-S cells) was 1%.

Molecule SCLESQPAI [WT1 peptide human p136-144 …] displayed a Binding Affinity to Mouse MHC Class I (percent increase of D^b or K^b on RMA-S cells) of 52%.

Molecule ALLPAVPSL [WT1 peptide human p10-18 …] showed a Binding Affinity to Mouse MHC Class I (percent increase of D^b or K^b on RMA-S cells) of 2.2%.

On to QMTSQLECM [WT1 peptide p228-236 …], for which the Binding Affinity to Mouse MHC Class I (percent increase of D^b or K^b on RMA-S cells) stood at 1.2%.

CMTWNQMNL [WT1 peptide p235-243 …] returned a Binding Affinity to Mouse MHC Class I (percent increase of D^b or K^b on RMA-S cells) of 33.6%.

GCNKRYFKL [WT1 peptide p329-337 …] registered a Binding Affinity to Mouse MHC Class I (percent increase of D^b or K^b on RMA-S cells) of 1.2%.
